Assay results reported in patent US20230383288, “SYSTEMS, METHODS, AND COMPOSITIONS FOR RNA-GUIDED RNA-TARGETING CRISPR EFFECTORS” (Massachusetts Institute of Technology, published 2023).

Target: T1, DiCas7-11 D429A/D654A (Desulfonema ishimotonii, D429A,D654A)
T1 chain: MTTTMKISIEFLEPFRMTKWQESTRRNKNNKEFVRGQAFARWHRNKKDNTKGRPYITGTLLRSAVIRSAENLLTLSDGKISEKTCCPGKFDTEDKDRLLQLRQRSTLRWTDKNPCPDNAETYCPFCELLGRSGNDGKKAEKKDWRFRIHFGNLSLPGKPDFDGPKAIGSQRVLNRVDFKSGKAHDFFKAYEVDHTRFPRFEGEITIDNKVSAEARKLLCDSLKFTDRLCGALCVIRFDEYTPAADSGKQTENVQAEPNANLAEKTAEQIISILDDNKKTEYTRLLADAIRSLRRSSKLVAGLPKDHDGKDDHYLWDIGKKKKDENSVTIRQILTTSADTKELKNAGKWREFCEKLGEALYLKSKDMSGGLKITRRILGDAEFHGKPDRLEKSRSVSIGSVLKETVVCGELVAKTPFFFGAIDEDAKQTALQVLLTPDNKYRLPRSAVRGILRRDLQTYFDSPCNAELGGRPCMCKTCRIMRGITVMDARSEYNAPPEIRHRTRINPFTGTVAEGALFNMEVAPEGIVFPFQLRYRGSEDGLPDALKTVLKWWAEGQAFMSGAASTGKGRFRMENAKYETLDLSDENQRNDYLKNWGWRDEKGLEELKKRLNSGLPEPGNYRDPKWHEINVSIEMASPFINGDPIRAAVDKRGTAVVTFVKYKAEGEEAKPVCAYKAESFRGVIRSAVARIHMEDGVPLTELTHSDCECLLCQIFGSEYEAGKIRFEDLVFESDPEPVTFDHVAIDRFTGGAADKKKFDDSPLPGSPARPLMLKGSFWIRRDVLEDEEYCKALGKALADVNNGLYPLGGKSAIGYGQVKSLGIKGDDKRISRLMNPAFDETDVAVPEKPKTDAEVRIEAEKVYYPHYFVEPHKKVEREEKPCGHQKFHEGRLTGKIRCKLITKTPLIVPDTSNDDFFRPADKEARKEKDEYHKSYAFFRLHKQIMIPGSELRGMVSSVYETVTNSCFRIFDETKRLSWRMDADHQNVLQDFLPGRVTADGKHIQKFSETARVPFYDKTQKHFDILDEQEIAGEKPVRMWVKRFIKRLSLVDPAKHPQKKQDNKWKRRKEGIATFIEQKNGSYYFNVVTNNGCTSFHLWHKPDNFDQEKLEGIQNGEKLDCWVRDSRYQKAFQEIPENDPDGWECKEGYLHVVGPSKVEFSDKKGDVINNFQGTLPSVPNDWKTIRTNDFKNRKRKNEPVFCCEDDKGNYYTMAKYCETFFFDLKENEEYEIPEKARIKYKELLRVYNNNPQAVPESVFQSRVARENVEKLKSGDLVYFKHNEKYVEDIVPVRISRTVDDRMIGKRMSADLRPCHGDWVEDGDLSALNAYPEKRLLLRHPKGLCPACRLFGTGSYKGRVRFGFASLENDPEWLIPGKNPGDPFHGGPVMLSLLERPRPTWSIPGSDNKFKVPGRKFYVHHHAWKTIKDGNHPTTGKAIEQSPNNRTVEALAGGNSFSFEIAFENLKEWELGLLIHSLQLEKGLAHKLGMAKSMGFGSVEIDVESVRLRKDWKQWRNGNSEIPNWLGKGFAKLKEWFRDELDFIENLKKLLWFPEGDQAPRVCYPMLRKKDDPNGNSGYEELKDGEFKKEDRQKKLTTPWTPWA
Experiment: structure; cryo-EM 2.45 A, PDB 7WAH; 20 mM Hepes pH 7.0, 150 mM NaCl, 2 mM MgCl2; target pairs with crRNA 1-23 except flipped 4 and 10
Settings: tags: N-terminal MBP, C-terminal His6
Description: A Cas7-11-crRNA-target RNA complex was reconstituted by mixing the purified MBP-Cas7-11 protein, the 39-nucleotide crRNA, and the 25-nucleotide target RNA, at a molar ratio of 1:1.2:1.5. The complex was purified by size-exclusion chromatography on a Superose6 Increase 10/300 column (GE Healthcare), equilibrated with the buffer containing 20 mM Hepes-NaOH, pH 7.0, 150 mM NaCl, 2 mM MgCl₂, and 1 mM DTT. The peak fraction containing Cas7-11-:crRNA-target RNA complex was concentrated to 1.5 A260 units using an Amicon Ultra-4 filter (10 kDa molecular-weight cutoff; Millipore). The samples (3 μl) were then applied to freshly glow-discharged Au 300 mesh R1.2/1.3 grids (Quantifoil) in a Vitrobot Mark IV (FEI) at 4° C. with a waiting time of 10 sec and a blotting time of 4 sec under 100% humidity conditions. The grids were plunge-frozen into liquid ethane cooled at liquid nitrogen temperature.
A model was built using Nautilus and Buccaneer in CCP-EM package and manually built using COOT against the density map sharpened using DeepEMhancer. […] The curve representing model vs. full map was calculated using phenix.mtriage, based on the final model and the full, filtered, and sharpened map. The cryo-EM density maps were calculated with UCSF ChimeraX, and molecular graphics figures were prepared with CueMol (http://www.cuemol.org).

B1: crRNA for structural analysis ; target RNA for structural analysis (ssRNA ; ssRNA)
RNA 1: GGUGAUGUCACGGAACCUUUGUUGUCUUCGACAUGGGUAAU
RNA 2: GGAUUACCCAUGUCGAAGACAACAAAG
- binding result: binds
